Legend:
[1] = target: Staphylococcus aureus ClpC-F436A (Staphylococcus aureus) (UniProt Q2G0P5); experiment: cross-linking
[2] = target: Staphylococcus aureus ClpC-F436A (Staphylococcus aureus) (UniProt Q2G0P5); experiment: dynamic light scattering
[3] = target: Staphylococcus aureus ClpC wild-type (Staphylococcus aureus) (UniProt Q2G0P5); experiment: mass photometry
[4] = target: Staphylococcus aureus ClpC wild-type (Staphylococcus aureus) (UniProt Q2G0P5); experiment: cross-linking
[5] = target: Mtb ClpC1 (Mycobacterium tuberculosis, UniProt P9WPC9)
[6] = target: T1, Staphylococcus aureus ClpP (Staphylococcus aureus), Q2G036; experiment: negative stain EM; conditions: remark: other sources report otherwise
T1 chain: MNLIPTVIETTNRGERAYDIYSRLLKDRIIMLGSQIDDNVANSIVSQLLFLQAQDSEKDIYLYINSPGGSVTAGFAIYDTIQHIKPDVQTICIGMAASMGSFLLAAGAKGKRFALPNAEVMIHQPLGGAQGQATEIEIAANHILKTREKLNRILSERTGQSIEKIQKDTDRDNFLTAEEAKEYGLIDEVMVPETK

Staphylococcus aureus ClpC-F436A (from UniProt Q2G0P5) (natural protein)
stoichiometry N [1]: 6
stoichiometry N [2]: 6

Staphylococcus aureus ClpC wild-type (from UniProt Q2G0P5) (natural protein)
stoichiometry N [3]: 2
stoichiometry N [4]: 6

Nc1ncnc2c1ncn2[C@@H]1O[C@H](COP(=O)(O)OP(=O)(O)OP(=O)(O)O)[C@@H](O)[C@H]1O [ATP]
coupled PK/LDH NADH ATPase assay [5]: ATPase activities of Mtb ClpC1-WT and indicated mutants were determined

B1: Staphylococcus aureus ClpP, Q2G036 1-195 (enzyme)
chain: T1 chain
stoichiometry N [6]: 14
